Values of other authors in PMC6963778.

Molecular target: RNF4 (Homo sapiens) (UniProt P78317)

RNF4 (from UniProt P78317)
Kd: 180 nM
